Results from article PMC5755574.

Molecular target: Alcaligenes xylosoxidans copper nitrite reductase (Alcaligenes xylosoxidans)
Test: crystal structure; as-isolated AxNiR crystals, space group R3, one monomer in the asymmetric unit, trimer formed by crystal symmetry; SRX resting state at 1.6 Å (BL41XU, SPring-8, cryo); the SF-ROX structure (SACLA XFEL, 100 K, 1.6 Å) from the same batch of crystals has near-identical global architecture

Alcaligenes xylosoxidans copper nitrite reductase (enzyme)
stoichiometry N: 3
